Experimental data: the supplement of paper PMC9170038

Test system: MS2 coat protein
Experiment: apparent KD of MS2 coat protein; designed switch direction (-1 OFF switch, 1 ON switch): 1; higher = weaker reporter binding
Method in brief: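 SNAP-549-labelled MS2 coat protein was titrated, doubling from 0.7 or 1.5 nM to 3 µM, over designed RNA switches transcribed on Illumina chips by stalled E. coli RNA polymerase. Runs were done without input, with 200 uM small-molecule ligand, or with an oligonucleotide input. Apparent KD is the per-design median over clusters of curve-fitted normalised fluorescence.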

[1] = input ligand: microRNA oligo, concentration not stated
[2] = Eterna round: R95, input ligand: FMN 200 uM
[3] = Eterna round: R95, input ligand: microRNA oligo, concentration not stated
[4] = Eterna round: R95, input ligand: none

Sequence | apparent KD of MS2 coat protein [1] [nM] | apparent KD of MS2 coat protein (input ligand: FMN 200 uM) [nM] | apparent KD of MS2 coat protein (input ligand: none) [nM] | apparent KD of MS2 coat protein [2] [nM] | apparent KD of MS2 coat protein [3] [nM] | apparent KD of MS2 coat protein [4] [nM]
AUUAAUAAUCGAGGAUAUCACGUCGAAUAGACGUGAGAAGGCGAUCAUAACAUGAGGAUCACCCAUGUAUUACAUGAAGUUAAU [SSNG1/4-B1] (Eterna round: R96, puzzle: Same State NG 1) | 20 |  |  |  |  | 
UUAAUUAUGUAAGGAUAUACAUGAGGAUUUCUCGUAGAAGGUACAUUACAUGAGGAUCACCCAUGUGGGUGUCAGAAGACGCCA [Mat - Same State NG 1 - JL mod - D12] (Eterna round: R96, puzzle: Same State NG 1) | 210 | 269 | 404 |  |  | 
UUAAUAAUGUUAGGAUAUACAUGAGGAAUCCUCGUAGAAGGAACAUGACAUGAGGAUCACCCAUGUAGCGCUCGAAAGAGCGCA [Mat - Same State NG 1 - JL mod - D48] (Eterna round: R96, puzzle: Same State NG 1) | 16.3 | 25.6 | 417 |  |  | 
GUAAAGAAUUAAGGAUAUUGAAUACAUAUGUUUAACAUGAGGAUCACCCAUGUGGGUUGCGGUAUCGAGAAGGUAAAAUAAAAG [Mat - Same State NG 2 - JL mod - D7] (Eterna round: R96, puzzle: Same State NG 2) | 105 | 137 | 124 |  |  | 
AACAAUUAACAUGAGGAUCACCCAUGUAUUACUUCGUGUUUUUGCUCGUCUUAUGUUAGGUUCGAUAGAGCUUAACA [Improved] (puzzle: Sensor for hsa-mir-208a version 2) |  |  |  | 42.4 | 12.6 | 44.9
UGGCUGAGUCGAGGAUAUUAUGGAUCCUCUAAUACAUGAGGAUCACCCAUGUAAUUAAUUAUACAUGAGAAGGUGACUCAGCCA [SSNG2/12-B2] (Eterna round: R96, puzzle: Same State NG 2) | 52.3 | 463 | 342 |  |  | 
UUUAGUUGCGGGCAGGAUAUGUAUUAAAAUACAUGAGGAUCACCCAUGUGAGGUCAUAAAGACCUGCAGAAGGGCCAAUCGCGAC [Laonerce - 17] (puzzle: Same State 2) |  |  |  | 11.5 | 86.8 | 48.3
UGGCUGGUGCUAGGAUAUCCAUGAGGAAUCCUCGUAGAAGGAGCACGACAUGAGGAUCACCCAUGUAGCCGUCCGUAGACGGCU [salish99_SSNG1_r04_008] (Eterna round: R96, puzzle: Same State NG 1) | 185 | 287 | 240 |  |  | 
GGUCCAGCCUGAGCUGGACGAUAGUAUGUACAUGAGGAUCACCCAUGUCAUGUAUAAGUAUUUUGUUUGUCUUGAAA [Sensorship 3 - Jieux - Sensor for hsa-mir-208a] (puzzle: Sensor for hsa-mir-208a) |  |  |  | 22.1 | 14.7 | 19.3
CAGCACUAUCGAGAGGAUAUGCGGUGAUGGACAUGAGGAUCACCCAUGUUAGCGAUAGCAUCACGGCAGAAGGCUCUGCUGCUGC [Soteed Omei mod 37] (puzzle: Same State 2) |  |  |  | 10.6 | 17.6 | 24.1
UUGCGCUGUCGAGAGGAUAUGCGGUGUUGGACAUGAGGAUCACCCAUGUUAGCGAUAGCAUUACGGUAGAAGGCUCUUCAGCUGC [salish99_ss2_r3_096] (puzzle: Same State 2) |  |  |  | 23.4 | 17 | 21.9
AGCCGAGACACAGGAUAUAGAUGUUUACAUGAGGAUCACCCAUGUAGCAACACGUGGUAGUGAUUCUAGAAGGGUGCUCGGCGC [Omei SS(NG)2 Cv11] (Eterna round: R96, puzzle: Same State NG 2) | 116 | 36.3 | 167 |  |  | 
AGGCUCAGACGAGGAUAUAUGUGAUCACAUGAGGAUCACCCAUGUCUCGAGCUUCGGCUCGAGACAUAGAAGGUGUCUGAGCCA [SSNG2/3-C1] (Eterna round: R96, puzzle: Same State NG 2) | 3.03 | 76.4 | 32.3 |  |  | 
GGACGAGACGCAGGAUAUGCGAAGAAGAAGGAAGCAGAAGGGCGUGUGGGACGACAUGAGGAUCACCCAUGUUCUCUGCGAGGA [ssng1 b] (Eterna round: R96, puzzle: Same State NG 1) | 116 | 363 | 331 |  |  | 
UGAACCUUCACAGGAUAUCAUGCGAAAAUUGCGUGAGAAGGGUGAAUGUGGUGUUCAUAGUUGCACAUGAGGAUCACCCAUGUA [SameState NG1 #52] (Eterna round: R96, puzzle: Same State NG 1) | 135 | 107 | 156 |  |  | 
AGCUAUUAAUCAGGAUAUAGUGACAUGAGGAUCACCCAUGUAUUGAUGAUUAAAUGUGGUCACCACUAGAAGGGAUUACUAACA [SameState NG2 #48] (Eterna round: R96, puzzle: Same State NG 2) | 23.8 | 23.2 | 26.9 |  |  | 
AAACACGGCAAAACGCCGUGACAUGAGGAUCACCCAUGUACACAGGAUAUCAUGGCAAAACACCAUGAGAAGGGUGAUCAAGAC [Zaleala] (Eterna round: R96, puzzle: Same State NG 3) | 26.1 | 30.7 | 34.9 |  |  | 
UUGUUUCGUCAUUAACAUGAGGAUCACCCAUGUAAAGAACCAGAGGAUAUGCAUGUUUGAUUGUAGCAGAAGGCUGAUUGUUGU [JR_SSNG3_Sub033] (Eterna round: R96, puzzle: Same State NG 3) | 42.7 |  |  |  |  | 
AGGCUCAGACGAGGAUAUACGUGGUCACAUGAGGAUCACCCAUGUCUCGAGCUUCGGCUCGAGGCGUAGAAGGUGUCUGAGCCA [SSNG2/6-C1] (Eterna round: R96, puzzle: Same State NG 2) | 406 | 195 | 609 |  |  | 
GCGAGCGUACUUGCUACAUGAGGAUCACCCAUGUUUCAUGGACAGGAUAUGGUACCGUUUCGGUACCAGAAGGGUUCACAUGUG [JL SSNG3 3.81] (Eterna round: R96, puzzle: Same State NG 3) | 68 | 88.7 | 92.1 |  |  | 
AGAGGAGGAGCAGGAUAUGCGAAGAAGAACGAGGUAGAAGGGCUCAUGCGAUGACAUGAGGAUCACCCAUGUACCGCGCGAGGA [AK SSNG1-V2-8.2] (Eterna round: R96, puzzle: Same State NG 1) | 209 | 207 | 142 |  |  | 
UUAUUAUAUAUAGGAUAUUGAUGUAAUUUAUUUCAAGAAGGAUAUACAUGAGGAUCACCCAUGUUGGAUAGGGUUAGUUUGUUU [JR_SSNG1_Sub079] (Eterna round: R96, puzzle: Same State NG 1) | 74 |  |  |  |  | 
AUCCUACAUGAGGAUCACCCAUGUGACGCCUCAAUAGGAUAUGCGUGUGCCUUGGCGCAUGCAGAAGGAUUGGAGC [JL Aveso mod 4] (puzzle: Same State 1) |  |  |  | 84.6 | 318 | 279
GUGCAAAUCAUAGGAUAUGGGCGGGAAUGCCGUCCAGAAGGAUGAACAUGAGGAUCACCCAUGUCCAGCCGCAAAUACGCGGCC [Sodirien] (Eterna round: R96, puzzle: Same State NG 1) | 95.1 | 93.8 | 192 |  |  | 
GCCGCGUUUCACGCCUACAUGAGGAUCACCCAUGUAUGUAGGCAGGAUAUCGUUUGCUUUGCAAACGAGAAGGGCUGUAGUGGC [salish99_SSNG3_R04_007] (Eterna round: R96, puzzle: Same State NG 3) | 92.3 | 41.7 | 116 |  |  | 
CGUCCGGCCUGUGCUGGCCGGUGGCUUGUACAUGAGGAUCACCCAUGUUCUUGUGCUGGCUUUUUGCUCGUCGUGUG [salish99_mir208a_r3_023] (puzzle: Sensor for hsa-mir-208a) |  |  |  | 32.6 | 19.8 | 37.9
AAAGUACAUGAGGAUCACCCAUGUCCAAAAAAGUAAGGAUAUGUGGUGCGACUACGAAACACAGAAGGUACAAAAA [Malcolm Mod] (puzzle: Same State 1) |  |  |  | 30.1 | 13.3 | 81.2
AUUUUUAAUGCAGGAUAUGAUUAACAUGAGGAUCACCCAUGUGGUGUUGUGAGUAAGGAGAGUGAUCAGAAGGGCAUUUUUAUU [JMF's solution 84] (Eterna round: R96, puzzle: Same State NG 2) | 450 | 1180 | 615 |  |  | 
